Experimental data reported in the supplement of paper PMC10126150.
± gives the standard deviation of the averaged measurements.

System: ATP
Experiment: switch fluorescence ratio, 500 uM ATP over buffer (Cy3 cluster intensity, sum of 5 cycles each) (fold (ratio)); higher = stronger signal-on switching upon ATP binding; sequences stand for … in TCGTCGGCAGCGTCAGATGTGTATAAGAGACAGTTTTTTTTTTTTTTTTTTTTTTTTT…TC
Conditions: aptamer strand: ATP DNA aptamer (quencher-CACCTGGGGGAGTATTGCGGAGGAAGG + anchor), 100 nM annealed; ATP concentration: 500 uM
Summary of the method: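 Cy3-labelled switching-strand clusters on a modified Illumina MiSeq flow-cell were annealed to 100 nM quencher-labelled ATP aptamer and imaged first in selection buffer, then after 15 min with 500 uM ATP at 22 °C. NaOH stripping and re-annealing separated each of five buffer/ATP cycles, and clusters outside 100-1000 RFU were excluded. The fluorescence ratio sums target-cycle Cy3 intensity over buffer-cycle Cy3 intensity per cluster and averages it per switch-domain sequence.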
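Also: ATP exposure 15 min at 22 °C before imaging.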

| Sequence | switch fluorescence ratio |
| --- | --- |
| TGAGTCGTGT | 0.9674 ± 0.0054 |
| TGAGTGAGGG | 1.01 ± 0.018 |
| TGAGTGCAGG | 1.02 ± 0.066 |
| TGAGTGTGTT | 0.962 ± 0.026 |
| TGAGTTATG | 1.0034 ± 0.00041 |
| TGAGTTATGC | 0.953 ± 0.015 |
| TGAGTTCGCA | 1.69 ± 0.13 |
| TGAGTTGGGG | 0.967 ± 0.016 |
| TGAGTTTTTA | 0.9956 ± 0.0072 |
| TGATAAAAAT | 0.993 ± 0.027 |
| TGATAATCTT | 0.99 ± 0.028 |
| TGATAATTGT | 1.01 ± 0.034 |
| TGATACTCGC | 1.18 ± 0.12 |
| TGATAGGGGT | 1.02 ± 0.05 |
| TGATAGGTCT | 0.986 ± 0.03 |
| TGATAGTAGT | 1 ± 0.025 |
| TGATAGTCTA | 1 ± 0.068 |
| TGATATAGAG | 1 ± 0.029 |
| TGATATCTTG | 0.9862 ± 0.0028 |
| TGATATTATT | 1.02 ± 0.015 |
| TGATATTTTA | 0.986 ± 0.035 |
| TGATCAGGGA | 1.02 ± 0.021 |
| TGATCGAAGG | 0.991 ± 0.034 |
| TGATCGGGGG | 0.982 ± 0.064 |
| TGATCTGCAG | 1.016 ± 0.0077 |
| TGATGCACGG | 1.04 ± 0.021 |

| Sequence | switch fluorescence ratio |
| --- | --- |
| TGATGCAGAG | 1.02 ± 0.018 |
| TGATGCTTT | 1.01 ± 0.077 |
| TGATGGATAG | 0.995 ± 0.047 |
| TGATGGCAGT | 1.02 ± 0.031 |
| TGATGGCCGA | 0.985 ± 0.019 |
| TGATGGGCGG | 0.9957 ± 0.008 |
| TGATGGGCGT | 0.9801 ± 0.0016 |
| TGATGGGGTG | 0.99 ± 0.012 |
| TGATGTGCA | 1.01 ± 0.17 |
| TGATGTTACG | 0.9871 ± 0.0046 |
| TGATGTTCGA | 1 ± 0.028 |
| TGATTACTGG | 1.027 ± 0.01 |
| TGATTAGAGT | 1.01 ± 0.016 |
| TGATTAGATT | 1.01 ± 0.046 |
| TGATTAGTTG | 0.993 ± 0.02 |
| TGATTCACTG | 0.9907 ± 0.0075 |
| TGATTCAGGT | 1 ± 0.024 |
| TGATTCTTAG | 0.989 ± 0.023 |
| TGATTGCCGG | 0.996 ± 0.02 |
| TGATTGTATG | 1.01 ± 0.011 |
| TGATTGTGCA | 0.989 ± 0.035 |
| TGATTGTGGC | 0.9557 ± 0.0095 |
| TGATTGTTGG | 1.01 ± 0.012 |
| TGATTTATAG | 1.012 ± 0.009 |
| TGATTTCAGG | 0.982 ± 0.062 |
| TGATTTGTTG | 0.971 ± 0.011 |

| Sequence | switch fluorescence ratio |
| --- | --- |
| TGATTTTCCA | 0.988 ± 0.021 |
| TGATTTTCTG | 1.008 ± 0.002 |
| TGATTTTGTT | 1.01 ± 0.018 |
| TGATTTTTCT | 1 ± 0.013 |
| TGCAAACCTA | 1.0241 ± 0.00058 |
| TGCAAAGAAA | 1.15 ± 0.12 |
| TGCAAAGATT | 0.99 ± 0.016 |
| TGCAAATTGG | 0.992 ± 0.011 |
| TGCAAGGGGC | 1.04 ± 0.04 |
| TGCACATAGG | 1.06 ± 0.016 |
| TGCACCAGGA | 1.13 ± 0.067 |
| TGCAGATTTA | 1.01 ± 0.014 |
| TGCAGCGTTC | 1.27 ± 0.053 |
| TGCAGGAATG | 2.17 ± 1.6 |
| TGCAGGCTGC | 0.989 ± 0.048 |
| TGCAGGGAGG | 1.02 ± 0.0064 |
| TGCAGGGCGA | 1.004 ± 0.0097 |
| TGCAGGGGGG | 1.02 ± 0.039 |
| TGCAGGGGGT | 1.09 ± 0.14 |
| TGCAGTATGG | 0.997 ± 0.019 |
| TGCAGTCAAG | 1.01 ± 0.016 |
| TGCAGTGAAT | 0.999 ± 0.026 |
| TGCATGAGCG | 1.02 ± 0.032 |
| TGCATGGTGG | 0.995 ± 0.01 |
| TGCATGTAGG | 1.01 ± 0.034 |
